Columns and labels:
[1] = target: αβγENaC expressed in Xenopus laevis oocytes (rat) (UniProt P37089); experiment: cell-based or functional assay
[2] = target: ENaC endogenous to primary human bronchial epithelial cultures (human) (UniProt P37088); experiment: cell-based or functional assay
[3] = target: yfp-tagged αENaC stably expressed on JME nasal epithelial cells; experiment: fluorescence binding isotherm on polarized JME cells expressing yfp-αENaC, empty-vector cells as non-specific control, Hill fit
[4] = tested on: T1, Recombinant SPLUNC1 (V5/6His-tagged, purified from HEK293 media)
T1 sequence: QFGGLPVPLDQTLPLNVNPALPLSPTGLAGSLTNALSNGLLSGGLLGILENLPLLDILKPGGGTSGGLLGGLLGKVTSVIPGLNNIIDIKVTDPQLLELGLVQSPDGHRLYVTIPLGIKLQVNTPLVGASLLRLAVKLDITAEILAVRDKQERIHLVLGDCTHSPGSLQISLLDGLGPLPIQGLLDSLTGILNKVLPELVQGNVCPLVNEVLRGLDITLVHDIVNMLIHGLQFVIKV

[5] = target: T2, ENaC containing the βS518C mutant (Rattus norvegicus, UniProt P37089+P37090+P37091, S518C); experiment: Oocyte current of ENaC containing the βS518C mutant with MTSET; type: cell-based; settings: addition of MTSET
T2 construct: expressed in transfected cells; host or cells: Xenopus oocytes
T2 sequence (P37089 1-698): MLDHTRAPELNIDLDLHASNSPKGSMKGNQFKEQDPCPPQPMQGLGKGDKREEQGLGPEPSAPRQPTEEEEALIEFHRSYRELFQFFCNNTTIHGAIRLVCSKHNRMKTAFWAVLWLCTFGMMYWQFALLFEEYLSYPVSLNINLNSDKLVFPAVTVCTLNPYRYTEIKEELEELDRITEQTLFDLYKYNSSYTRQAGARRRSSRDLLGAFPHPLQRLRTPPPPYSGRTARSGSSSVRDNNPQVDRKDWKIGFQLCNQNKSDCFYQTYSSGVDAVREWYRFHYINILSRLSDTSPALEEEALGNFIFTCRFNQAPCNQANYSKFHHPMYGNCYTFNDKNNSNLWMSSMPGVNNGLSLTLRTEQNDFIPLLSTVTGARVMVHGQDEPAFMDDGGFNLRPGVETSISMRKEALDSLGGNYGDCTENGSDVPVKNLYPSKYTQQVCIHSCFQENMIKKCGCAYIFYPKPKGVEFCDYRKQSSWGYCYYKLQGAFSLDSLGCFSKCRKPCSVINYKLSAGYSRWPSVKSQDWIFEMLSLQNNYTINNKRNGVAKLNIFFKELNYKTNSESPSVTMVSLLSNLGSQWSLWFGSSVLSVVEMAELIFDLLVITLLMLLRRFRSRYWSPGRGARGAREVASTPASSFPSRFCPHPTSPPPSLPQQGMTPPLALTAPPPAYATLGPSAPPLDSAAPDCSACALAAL
T2 sequence (P37090 1-638 S518C): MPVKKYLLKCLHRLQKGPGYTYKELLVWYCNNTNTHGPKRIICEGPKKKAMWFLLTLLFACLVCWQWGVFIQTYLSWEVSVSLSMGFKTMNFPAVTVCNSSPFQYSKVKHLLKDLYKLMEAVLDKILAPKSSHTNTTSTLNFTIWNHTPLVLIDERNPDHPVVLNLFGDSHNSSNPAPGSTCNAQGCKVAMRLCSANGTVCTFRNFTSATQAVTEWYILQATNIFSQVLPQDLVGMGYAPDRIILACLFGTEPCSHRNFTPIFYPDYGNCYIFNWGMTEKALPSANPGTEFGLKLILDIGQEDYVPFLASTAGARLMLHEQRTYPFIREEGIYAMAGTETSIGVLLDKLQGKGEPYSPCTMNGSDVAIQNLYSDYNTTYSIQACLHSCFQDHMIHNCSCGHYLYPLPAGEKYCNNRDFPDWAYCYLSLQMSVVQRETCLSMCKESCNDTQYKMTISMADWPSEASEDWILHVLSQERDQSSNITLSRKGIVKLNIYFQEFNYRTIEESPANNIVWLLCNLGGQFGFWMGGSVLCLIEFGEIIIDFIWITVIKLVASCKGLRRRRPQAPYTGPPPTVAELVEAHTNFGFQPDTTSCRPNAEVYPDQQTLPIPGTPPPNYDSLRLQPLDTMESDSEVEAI
T2 sequence (P37091 1-650): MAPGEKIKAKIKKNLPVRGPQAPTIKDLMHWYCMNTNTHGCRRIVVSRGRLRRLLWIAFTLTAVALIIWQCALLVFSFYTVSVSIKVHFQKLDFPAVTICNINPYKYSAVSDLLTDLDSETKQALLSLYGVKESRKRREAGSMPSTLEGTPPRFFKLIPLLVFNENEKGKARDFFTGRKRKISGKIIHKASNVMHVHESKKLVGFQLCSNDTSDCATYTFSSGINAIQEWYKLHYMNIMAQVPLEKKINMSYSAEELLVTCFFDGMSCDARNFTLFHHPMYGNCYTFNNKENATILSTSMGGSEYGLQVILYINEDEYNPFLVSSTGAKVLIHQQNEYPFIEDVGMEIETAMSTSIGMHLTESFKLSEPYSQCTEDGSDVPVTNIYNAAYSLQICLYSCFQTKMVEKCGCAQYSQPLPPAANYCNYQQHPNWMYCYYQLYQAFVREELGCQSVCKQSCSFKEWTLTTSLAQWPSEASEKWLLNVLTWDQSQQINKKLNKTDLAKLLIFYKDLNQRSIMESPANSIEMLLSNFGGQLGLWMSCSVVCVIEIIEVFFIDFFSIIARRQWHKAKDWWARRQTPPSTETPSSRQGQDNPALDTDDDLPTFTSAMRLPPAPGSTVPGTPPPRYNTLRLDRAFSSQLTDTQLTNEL
Description: Oocyte studies. Xenopus laevis oocytes were harvested and injected as described (Donaldson, et al., J. Biol. Chem. 277:8338 (2002)). Defolliculated healthy stage V-VI oocytes were injected with 0.3 ng of cRNA of each ENaC subunit. Injected oocytes were kept in modified Barth's saline (in mM: 88 NaCl, 1 KCl, 2.4 NaHCO3, 0.3 Ca(NO3)2, 0.41 CaCl2, 0.82 MgSO4, and 15 HEPES, adjusted to pH 7.35 with Tris). Oocytes were studied 24 hr after injection using the two electrode voltage clamp technique as previously described (Donaldson, et al., J. Biol. Chem. 277:8338 (2002)). Oocytes were clamped at a holding potential of […]. The change in amiloride-sensitive whole cell current as an indicator of ENaC activity was determined by subtracting the corresponding current value measured in the presence of 10 μM amiloride from that measured before the application of amiloride.
The effect of SPLUNC1 on the number of ENaC channels in the plasma membrane was tested by expressing SPLUNC1 and αENaC in Xenopus oocytes. After surface biotinylation of αENaC, total lysate was prepared and lysate from 3-4 eggs was separated on a 10% gel.

[6] = target: αβγENaC expressed in Xenopus laevis oocytes (rat, UniProt P37089 1-698; P37090 1-638; P37091 1-650); experiment: cell-based or functional assay

ENaC endogenous to primary human bronchial epithelial cultures (human), sequence (P37088 whole entry, chain 1 of 3): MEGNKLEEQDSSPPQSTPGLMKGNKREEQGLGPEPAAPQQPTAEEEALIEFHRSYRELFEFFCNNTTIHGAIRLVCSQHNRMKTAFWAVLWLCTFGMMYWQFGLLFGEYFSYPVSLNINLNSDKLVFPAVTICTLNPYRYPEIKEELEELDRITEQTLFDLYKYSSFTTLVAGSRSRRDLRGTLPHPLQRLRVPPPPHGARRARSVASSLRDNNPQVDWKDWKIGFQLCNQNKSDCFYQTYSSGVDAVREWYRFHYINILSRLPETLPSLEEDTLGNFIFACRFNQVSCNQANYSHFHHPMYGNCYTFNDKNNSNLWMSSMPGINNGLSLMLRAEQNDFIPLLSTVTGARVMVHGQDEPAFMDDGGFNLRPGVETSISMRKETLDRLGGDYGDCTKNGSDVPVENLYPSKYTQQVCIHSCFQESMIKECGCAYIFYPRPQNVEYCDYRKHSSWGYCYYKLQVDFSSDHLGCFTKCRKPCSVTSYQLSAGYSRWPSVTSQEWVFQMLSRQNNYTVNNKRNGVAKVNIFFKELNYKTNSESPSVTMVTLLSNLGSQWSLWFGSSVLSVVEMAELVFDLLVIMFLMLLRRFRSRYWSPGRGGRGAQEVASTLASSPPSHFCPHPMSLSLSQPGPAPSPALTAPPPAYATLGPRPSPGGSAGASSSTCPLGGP
ENaC endogenous to primary human bronchial epithelial cultures (human), sequence (P51168 whole entry, chain 2 of 3, further chain): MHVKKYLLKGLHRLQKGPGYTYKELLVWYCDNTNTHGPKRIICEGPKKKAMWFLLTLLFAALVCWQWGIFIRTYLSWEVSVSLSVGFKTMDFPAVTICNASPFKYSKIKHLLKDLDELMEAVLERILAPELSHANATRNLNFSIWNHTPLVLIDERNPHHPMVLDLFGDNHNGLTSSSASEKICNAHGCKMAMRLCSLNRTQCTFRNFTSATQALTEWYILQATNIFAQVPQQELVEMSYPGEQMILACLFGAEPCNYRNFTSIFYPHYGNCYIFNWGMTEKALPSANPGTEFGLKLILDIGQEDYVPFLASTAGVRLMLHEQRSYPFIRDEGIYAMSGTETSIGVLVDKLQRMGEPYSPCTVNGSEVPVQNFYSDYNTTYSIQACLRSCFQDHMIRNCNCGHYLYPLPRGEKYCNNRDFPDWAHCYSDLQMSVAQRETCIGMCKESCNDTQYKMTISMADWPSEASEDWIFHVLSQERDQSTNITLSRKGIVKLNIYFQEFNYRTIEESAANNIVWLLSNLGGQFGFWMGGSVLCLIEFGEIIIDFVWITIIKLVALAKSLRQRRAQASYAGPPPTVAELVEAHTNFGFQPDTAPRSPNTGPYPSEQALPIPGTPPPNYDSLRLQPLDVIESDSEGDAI
ENaC endogenous to primary human bronchial epithelial cultures (human), sequence (P51170 whole entry, chain 3 of 3, further chain): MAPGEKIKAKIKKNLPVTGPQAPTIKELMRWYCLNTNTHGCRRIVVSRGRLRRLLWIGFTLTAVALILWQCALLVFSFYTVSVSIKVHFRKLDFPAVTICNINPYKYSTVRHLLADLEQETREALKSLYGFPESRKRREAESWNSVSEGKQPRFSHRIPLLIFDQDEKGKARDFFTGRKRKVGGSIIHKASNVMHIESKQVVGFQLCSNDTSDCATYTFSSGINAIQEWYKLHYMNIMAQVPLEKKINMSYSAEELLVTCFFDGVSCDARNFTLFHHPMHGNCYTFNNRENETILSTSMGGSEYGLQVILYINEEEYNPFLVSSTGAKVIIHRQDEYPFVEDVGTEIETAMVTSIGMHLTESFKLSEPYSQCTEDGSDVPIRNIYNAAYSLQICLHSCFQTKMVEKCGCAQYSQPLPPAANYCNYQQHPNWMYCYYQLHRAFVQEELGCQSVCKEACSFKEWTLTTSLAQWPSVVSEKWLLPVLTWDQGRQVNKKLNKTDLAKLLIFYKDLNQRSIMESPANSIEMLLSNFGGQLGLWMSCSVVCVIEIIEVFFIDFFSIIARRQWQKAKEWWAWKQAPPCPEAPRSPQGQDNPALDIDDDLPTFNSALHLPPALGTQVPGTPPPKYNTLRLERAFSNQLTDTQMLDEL
yfp-tagged αENaC stably expressed on JME nasal epithelial cells, sequence (P37088 whole entry): as the sequence (P37088 whole entry, chain 1 of 3) above

Recombinant SPLUNC1 (V5/6His-tagged, purified from HEK293 media) (from UniProt Q9NP55 20-256)
decrease in ENaC currents (amiloride-sensitive whole cell current, oocytes) [1]: 70%
ENaC inhibition [2]: 70%
transepithelial electrical resistance [2]: 33%

Texas red-labeled recombinant SPLUNC1 (from UniProt Q9NP55 20-256)
Kd [3]: 0.055 µg/mL

trypsin
cleavage of fluorogenic substrate BGAR-MCA by 1.0 or 0.3 U/ml trypsin [4]: 50 ng/ml rSPLUNC1 had only a modest affect (˜10%) on the ability of either 1.0 or 0.3 U/ml trypsin to cleave a fluorogenic substrate

C[N+](C)(C)CCSS(C)(=O)=O.[Br-] [MTSET, reference compound]
ENaC Po [5]: 1.0

B1: V5-tagged SPLUNC1 expressed in Xenopus oocytes (other, not shown: small tags and cut ends)
chain: QFGGLPVPLDQTLPLNVNPALPLSPTGLAGSLTNALSNGLLSGGLLGILENLPLLDILKPGGGTSGGLLGGLLGKVTSVIPGLNNIIDIKVTDPQLLELGLVQSPDGHRLYVTIPLGIKLQVNTPLVGASLLRLAVKLDITAEILAVRDKQERIHLVLGDCTHSPGSLQISLLDGLGPLPIQGLLDSLTGILNKVLPELVQGNVCPLVNEVLRGLDITLVHDIVNMLIHGLQFVIKV
decrease in amiloride-sensitive ENaC current relative to control oocytes [6]: ~70%
